# Laboratory results from US20240327530A1 (ICHNOS SCIENCES, published 2024).
# T1: Human IL-1RAP, membrane-bound on human cells (HaCaT, dermal fibroblasts, neutrophils, PBMC, whole blood) (human, UniProt Q9NPH3 21-570)
# T1 construct: Endogenous protein on cells
# T1 sequence: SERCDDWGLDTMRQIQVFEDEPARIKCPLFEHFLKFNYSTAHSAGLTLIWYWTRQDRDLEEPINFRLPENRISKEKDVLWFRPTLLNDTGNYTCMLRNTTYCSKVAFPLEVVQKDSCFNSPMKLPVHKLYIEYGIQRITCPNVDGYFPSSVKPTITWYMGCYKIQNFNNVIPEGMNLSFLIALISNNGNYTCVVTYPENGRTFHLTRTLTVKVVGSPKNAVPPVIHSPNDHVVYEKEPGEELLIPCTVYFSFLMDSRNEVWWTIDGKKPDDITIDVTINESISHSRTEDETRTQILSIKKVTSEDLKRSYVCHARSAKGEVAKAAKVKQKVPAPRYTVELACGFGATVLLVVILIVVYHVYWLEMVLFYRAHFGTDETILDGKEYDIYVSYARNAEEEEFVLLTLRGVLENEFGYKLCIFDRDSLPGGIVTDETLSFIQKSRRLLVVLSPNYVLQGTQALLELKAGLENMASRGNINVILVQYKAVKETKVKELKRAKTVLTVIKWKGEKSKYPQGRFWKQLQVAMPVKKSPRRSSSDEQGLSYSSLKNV
# B1: Anti-IL-1RAP-C8-RecC-ES-IgG1LALA (antibody, V domains shown)
# VH: QVQLVQSGAEVKKPGSSVKVSCKASGSPAEPYAIQWVRQAPGQGLEWMGYIIPSLGGYDYAQKFQGRVTITADESTSTAYMELSSLRSEDTAVYYCARGQTLYESGRQFDIWGQGTLVTVSS
# VL: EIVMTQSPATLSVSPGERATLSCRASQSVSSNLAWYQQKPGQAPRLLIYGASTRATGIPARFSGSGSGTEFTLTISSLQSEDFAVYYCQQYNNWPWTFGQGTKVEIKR
# notes: also called ISB 880-C8-recC-ES
# Target: T1, Human IL-1RAP, membrane-bound on human …
# Test: flow cytometry on human neutrophils, anti-human IgG PE-Cyanine7, relative geometric MFI (isotype subtracted)
# Description: A dose-response of anti-human IL-1RAP_candidate_1 (●) or Isotype control_5 (▪) was incubated with various cell lines and cell types. Bound antibodies were detected with a monoclonal anti-human IgG PE-Cyanine7 secondary antibody. The graphs show the nonlinear sigmoidal regression binding curves (Relative Geometric Mean Fluorescence Intensity) for each cell lines. Each data point is a measurement for a given cell line. Multiple independent experiments were performed across several donors (HaCaT and HaCaT IL-1RAP KO: 4 and 3 independent experiments; Human Dermal Fibroblasts: 2 independent experiments—total of 5 donors; Human Neutrophil: 2 experiments—total of 6 donors; Cyno Dermal Fibroblasts: 2 independent experiment—total of 4 donors).
# In brief, cells were harvested, counted, and plated at 50,000 cells/well in a 96-well round-bottom plate. […] The cells were gated based on size on FSC vs SSC and analyzed for PE-Cyanine7-geometric mean (geomean) fluorescence intensity using FLOWJO® software. Finally, relative geomean fluorescence intensity was calculated by subtracting fluorescence of anti-human IL-1RAP_candidate_1 per fluorescence of Isotype control_5. […]
binder,measurement,value
B1,EC50 (read off the curve),~0.2 µg/mL
